Reference: patent publication US10149824B2, “Reverse hexagonal mesophases (HII) and uses thereof” (YISSUM RESEARCH DEVELOPMENT COMPANY OF THE HEBREW …, priority 2009, dated 2018)

Columns and labels:
[1] = assay type: in vitro ADME
Text: FIG. 24 presents the cumulative transdermal transport of 1 wt % desmopressin, (□) via water solution, (Δ) via HII mesophase.
The applicability and efficiency the HII mesophase as carriers for a transdermal delivery of desmopressin as model peptide drug was studied. Such delivery was especially relevant since the high hydrophilicity of this peptide was the main reason for its uncontrolled fast release when used without a proper carrier.
In the case of bulk hexagonal mesophase, reduced values of steady-state flux were obtained for the drug and its permeability coefficients through the skin, as compared to a water solution. In other words, the peptide molecules penetrated more easily and freely through the skin from water solution, than from hexagonal phase vehicles. […] The drug probably accumulated in microfissures and in a three-dimensional network of thin threads of the skin.

[2] = ATR-FTIR secondary structure of LSZ as a function of temperature; assay type: physicochemical
Experimental: Proteins in general are known for their low stability at high temperatures.
Further temperature increase confirmed the diverse denaturation mechanism. Up to 73° C., the α-helix and the random coil contents decreased in favor of γ-turn formation.

[3] = cubic phase; cited from earlier work
[4] = ATR-FTIR secondary structure of LSZ under urea denaturation; assay type: physicochemical
Text: The α-helix to β-sheet transition in proteins is highly important for understanding their folding and biological functions. It is recognized that the α→β transition is probably responsible for several conformational diseases, such as Alzheimer disease, where the α-helical forms are normal and the β-sheet forms are amyloidogenic. Urea is an accepted denaturating agent, which may act in several molecular mechanisms. These possible pathways include direct interactions of urea with the protein, indirect effects by decreasing water-water interactions and hydrogen bond strength, and allowing the exposure of nonpolar groups of the protein to the solvent and combinations thereof.
The β-sheet formation was detected by FTIR analysis at 1620 cm^−1 and it was associated with aggregation of the protein, caused by denaturation, in accordance with the literature. In contrast, within the hexagonal mesophase the α-helical conformation stayed intact up to 4M of urea.

[5] = ATR-FTIR secondary structure analysis of LSZ (amide I' band) as a function of pH; assay type: physicochemical
Experimental: The spectra were recorded with 50 scans, with spectral resolution of 2 cm^−1, at room temperature.

[6] = ATR-FTIR conformational stability of calcitonin in HII mesophase; assay type: physicochemical
Text: In order to overcome this problem, calcitonin was solubilized into the reverse hexagonal mesophase of the invention, as disclosed herein. Transition from random coil, which is characteristic to the stable and soluble state of the peptide to α helix and mainly β-sheet, which are responsible for the unfavorable aggregation, was detected using ATR-FTIR (FIG. 31). It is well documented that calcitonin is extremely unstable in aqueous solutions, which is reflected by a significant decrease of random coil content and simultaneous increase in the concentration of α helix and β-sheet. At room temperature this trend is observed already after ˜2 days. Using the ATR-FTIR technique, the embedment of calcitonin into the aqueous channels of HII mesophase was explored, indicating a significant improvement in the stability of the peptide (FIGS. 32a-c). […] Therefore, the opposite tendency of calcitonin stabilization in the hexagonal phase was detected, as compared to a water solution. Only after 27 days, the peptide stability decreased, as reflected by the decrease of the random coil content.

[7] = In vivo oral delivery of calcitonin in rats, plasma calcium levels; set-up: species or system Sprague-Dawley rats; conditions: calcitonin solubilized in hexagonal liquid crystals and/or hexosomes
Experimental: Male Sprague-Dawley rats (Orient Bio Inc, Korea), 7- to 8-weeks old, weighing 250-310 g, were used in the experiments. Animals were housed under a 12-h light-dark cycle, with food and water ad libitum. All animal handling was in accordance with the guidelines of Animal Care and Use Committee of the Korean Institute of Science and Technology.
The technique of cannulation of the jugular vein and arterial has been developed to allow serial blood sampling from an animal. After anesthesia with 0.4 ml/kg of intraperitoneally administered Rumpun/Zoletile [1:2 (v/v)], an incision was made in the skin just above the right clavicle. After preparation of the jugular vein, it was ligated at the distal side. A cannula filled with heparinized normal saline (10 units/ml) was inserted until the tip reached into the right atrium. Arterial cannulation was performed according to the same methods. […]
Calcium concentration at time zero was normalized as the reference level. […] The calcium level in plasma sample was determined using a commercial Calcium Colorimetric Assay Kit (K380-250, Biovision, Mountain View, Calif., USA). In short, plasma calcium was treated with o-cresolphthalein to form a purple colored complex which was measured at 575 nm. […]

[8] = water solution, after urea denaturation (starting from 2M urea)
[9] = water solution, before the urea-induced decrease

With `NC(=O)CC[C@@H]1NC(=O)[C@H](Cc2ccccc2)NC(=O)[C@H](Cc2ccc(O)cc2)NC(=O)CCSSC[C@@H](C(=O)N2CCC[C@H]2C(=O)N[C@H](CCCN=C(N)N)C(=O)NCC(N)=O)NC(=O)[C@H](CC(N)=O)NC1=O` [desmopressin] the “permeability coefficients through the skin” value [1] was “reduced”, the “release via the HII mesophase” value [1] was “sustained release” and the steady-state flux [1] was “reduced”.

In the case of “LSZ: hydrophilic protein (14.4 KDa) used as model protein solubilized in the HII mesophase”, the “temperature from which LSZ denaturation occurs” value ([2]; D2O) is reported as 63 °C, the random coil content ([2]; D2O, 60° C.) is reported as roughly 0.3 and the α-helix content ([2]; D2O, 60° C.) is reported as roughly 0.7. For the same molecule, the random coil content ([2]; D2O, 65° C.) was 0.62, the α-helix content ([2]; D2O, 65° C.) was 0.34 and the α-helix content ([2]; LSZ loaded HII mesophase, 60° C.) was roughly 0.7. It also gave a γ-turn content ([2]; LSZ loaded HII mesophase, 63-65° C.) of 0.1, a α-helix content ([2]; LSZ loaded HII mesophase, 65° C.) of 0.61 and a γ-turn content ([2]; LSZ loaded HII mesophase, before 63-65° C.) of 0. For the same molecule, the random coil content ([2]; LSZ loaded HII mesophase, between 63-65° C.) was “preserved”, the “time in which the bulk of the release occurred” value (shortened to “time in which the bulk”) [3] was “a week” and the “β-sheet content within HII mesophase compared to water solution” value ([4]; urea) was “significantly lower”. For the same molecule, the random coil content [4, 8] was 0.03, the α-helix content [4, 8] was 0.21 and the random coil content [4, 9] was 0.27. The α-helix content [4, 9] was 0.73, the random coil content ([4]; water solution, urea (comparison with HII)) was 0.06 and the β-sheet content ([4]; water solution, urea denaturation) was “up to 0.69”. The random coil content ([4]; within the HII mesophase, urea) was 0.18, the “urea concentration up to which α-helical conformation stayed intact” value ([4]; within the hexagonal mesophase) was “up to 4 M” and the “secondary structure on incorporation into hexagonal phase” value ([5]; HII mesophase, pH 1.5 to 6) was “no modifications”. The “random coil structure content” value ([5]; LSZ solution in D2O, pH 1.5) was 0.22, the α-helix content ([5]; LSZ solution in D2O, pH 1.5) was 0.78 and the “random coil structure content” value ([5]; LSZ solution in D2O, pH 11.14) was 0.4. For the same molecule, the “random coil content within HII mesophases compared to D2O” value ([5]; pH from 6 to 11) was “lower” and the “α-helix content within HII mesophases compared to D2O” value ([5]; pH from 6 to 11) was “considerably higher”.

For calcitonin, the “random coil structure content” value ([6]; in HII mesophase, pH 3 and 5, 27th day) was roughly 100%, the “content of α helix and β-sheet forms as a function of time” value ([6]; in HII mesophase, pH 3 to 9) was “drastically decreased” and the “time after which the peptide stability decreased” value ([6]; in reverse hexagonal phase) was 27 days. The “time for which sCT conformational stability is maintained” value ([6]; solubilized within hexagonal mesophases) was “more than 20 days” and the “plasma levels of calcium” value [7] was “significantly reduced”.

For “cytochrome C: intermediate sized protein released from cubic phase [reference compound]”, the “time in which the bulk” value [3] is given as “a week”.

B1: myoglobin: intermediate sized protein released from cubic phase (protein, UniProt P68082 2-154, looked up)
Myoglobin: GLSDGEWQQVLNVWGKVEADIAGHGQEVLIRLFTGHPETLEKFDKFKHLKTEAEMKASEDLKKHGTVVLTALGGILKKKGHHEAELKPLAQSHATKHKIPIKYLEFISDAIIHVLHSKHPGDFGADAQGAMTKALELFRNDIAAKYKELGFQG
For B1, the “time in which the bulk” value [3] is given as “a week”.
